# Measured values from article PMC11886824 (Nucleic Acids Research, 2025).
# Read-outs that look alike come from different tables or passages of the source.
# T1: P12 WT (Enterobacteria phage PRD1, UniProt P17637 1-160)
# T1 sequence: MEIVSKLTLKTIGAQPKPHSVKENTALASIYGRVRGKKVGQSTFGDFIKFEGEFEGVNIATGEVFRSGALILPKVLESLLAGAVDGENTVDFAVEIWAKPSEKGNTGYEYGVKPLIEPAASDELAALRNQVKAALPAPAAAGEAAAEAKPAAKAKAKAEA
# T2: P12 F44A+K10A (M2) (Enterobacteria phage PRD1, UniProt P17637 1-160, K10A;F44A)
# T2 sequence: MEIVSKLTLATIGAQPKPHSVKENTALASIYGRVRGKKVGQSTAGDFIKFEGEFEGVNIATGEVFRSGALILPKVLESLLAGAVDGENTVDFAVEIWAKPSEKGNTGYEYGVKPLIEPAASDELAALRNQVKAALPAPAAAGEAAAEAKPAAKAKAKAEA
# T3: P12(1-122) (T3) (Enterobacteria phage PRD1, UniProt P17637 1-122, del123-160)
# T3 sequence: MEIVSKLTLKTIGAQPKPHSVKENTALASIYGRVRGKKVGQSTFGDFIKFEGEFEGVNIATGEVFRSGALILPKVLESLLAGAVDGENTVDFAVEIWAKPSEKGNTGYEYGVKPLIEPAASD
# Key:
# [1] = biological target: T1, P12 WT; test: EMSA
# [2] = biological target: T1, P12 WT; test: EMSA; remark: listed apart in the source
# [3] = biological target: T2, P12 F44A+K10A (M2); test: EMSA
# [4] = biological target: T3, P12(1-122) (T3); test: EMSA
# [5] = biological target: T1, P12 WT; test: EMSA; remark: listed apart in the source
# [6] = biological target: the molecule itself; test: cryo-EM structure
binder,measurement,setting,value
AGAGACAACTGGCCGTCGTTCTATTGTACTCACTGTGATC (ssDNA) [ssDNA (non-repetitive)40],binding result,[1],binds
ssDNA (non-repetitive)80 (ssDNA) DNA: AGAGACAACTGGCCGTCGTTCTATTGTACTCACTGTGATCAGAGACAACTGGCCGTCGTTCTATTGTACTCACTGTGATC,Kd,[2],350 nM
same,binding result,[3],no binding
same,binding result,[4],no binding
GATCACAGTGAGTACAATAGAACGACGGCCAGTTGTCTCAATCTAACGGC (ssDNA) [ssDNA (non-repetitive)50],binding result,[5],binds
GAAAAUAAAAAUAAACUGGACAAUUAAGGAUCCUGUACAAGUCGACGCGG (ssRNA) [ssRNA (non-repetitive)50],binding result,[5],no binding
"P12, single-stranded DNA-binding protein from bacteriophage PRD1 (natural protein, UniProt P17637 1-160, looked up) MEIVSKLTLKTIGAQPKPHSVKENTALASIYGRVRGKKVGQSTFGDFIKFEGEFEGVNIATGEVFRSGALILPKVLESLLAGAVDGENTVDFAVEIWAKPSEKGNTGYEYGVKPLIEPAASDELAALRNQVKAALPAPAAAGEAAAEAKPAAKAKAKAEA",binding result,[6],binds
